Data published in paper doi:10.1101/302299.

B1: GCC11 (crystal) (dsDNA)
DNA 1: TAGCCGCCAGC
DNA 2: GCTGGCGGCTA
B2: GCC11 probe (dsDNA)
DNA 1: TAGCCGCCAGC
DNA 2: GCTGGCGGCTA

Legend:
AtERF96 WT [1] = target: T1, AtERF96 WT (Arabidopsis thaliana, UniProt Q9LSX0 1-131); assay: X-ray crystallography
AtERF96 WT [2] = target: T1, AtERF96 WT; assay: EMSA

T1 sequence (Q9LSX0 whole entry): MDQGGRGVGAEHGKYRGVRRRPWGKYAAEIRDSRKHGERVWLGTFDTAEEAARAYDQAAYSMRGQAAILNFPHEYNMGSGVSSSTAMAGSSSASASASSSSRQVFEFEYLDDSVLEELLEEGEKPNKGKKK

| Binder | binding result (AtERF96 WT [1]) | binding result (AtERF96 WT [2]) |
| --- | --- | --- |
| B1 | binds | – |
| B2 | – | binds |
